Reference: paper PMC11706664, “Structure of WzxE the lipid III flippase for Enterobacterial Common Antigen polysaccharide” (Open Biology, 2025)

Experiments:
[1] = target: T1, WzxE-Nb10 complex (WzxE held on immobilised biotinylated Nb10-strep II) (Escherichia coli K-12 MG1655 (WzxE), V inserted between M1 and S2 (worked out from the letters of primer WzxE-F, …, biotin (EZ-link Sulfo-NHS-LC Biotin kit))); test: ELISA; nanobodies screened on the WzxE-Nb10 complex held on Streptactin-coated plates by biotinylated Nb10-strep II; anti-His HRP antibody, read at 410 nm; room temperature; the step of adding the nanobodies is not described
T1 construct: WzxE, E. coli K-12 MG1655, as the chain of m1 (purified in DDM); as the chain of m4 (Nb10 with strep II tag); A complex of a natural membrane protein and a nanobody, so that no single origin fits; not shown: His10, C-terminal, cleaved; strep II, C-terminal, kept
T1 chain: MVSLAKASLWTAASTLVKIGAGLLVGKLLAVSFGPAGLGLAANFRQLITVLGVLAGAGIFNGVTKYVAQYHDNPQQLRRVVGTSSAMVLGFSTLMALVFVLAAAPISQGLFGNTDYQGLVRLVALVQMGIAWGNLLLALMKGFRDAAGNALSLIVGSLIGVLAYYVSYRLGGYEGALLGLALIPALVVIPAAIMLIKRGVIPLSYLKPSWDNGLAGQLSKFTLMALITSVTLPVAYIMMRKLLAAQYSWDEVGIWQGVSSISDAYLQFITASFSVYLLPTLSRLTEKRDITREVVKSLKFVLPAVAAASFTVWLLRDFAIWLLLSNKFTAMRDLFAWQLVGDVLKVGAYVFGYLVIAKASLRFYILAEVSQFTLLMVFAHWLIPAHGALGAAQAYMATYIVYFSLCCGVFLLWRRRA

[2] = target: T2, WzxE, the lipid III flippase from Escherichia coli (E. coli K-12 MG1655, UniProt P0AAA7, V inserted between M1 and S2 (worked out from the letters of primer WzxE-F, …)); test: crystal structure; WzxE-Nb10-Nb7 complex (Nb7 added to pre-formed WzxE-Nb10), with und-PP-GlcNAc or nerol-PP-GlcNAc added, lipidic cubic phase, 20°C; outward-facing conformation (PDB 9G9M, 9G9O); details: both partners purified
T2 construct: His10 removed with TEV protease; Residues of the XhoI site and of the TEV site probably stay at the C-terminus after cleavage (surmise); The same construct purified in DDM only was used in the ELISA; also called chain A; source: E. coli C43(DE3), purified from membranes (DM extraction with DDM/OGNG purification, or DDM only; nickel NTA, TEV cleavage, reverse IMAC, SEC); not shown: His10, …

[3] = target: T2, WzxE, the lipid III flippase from …; test: SEC; WzxE incubated with nanobody at molar ratio 1:1.2 WzxE:Nb for 2 h at 4°C; co-elution on size exclusion chromatography in buffer B (25 mM Tris pH 7.5, 150 mM NaCl, 5% glycerol, OGNG, DDM); details: both partners purified
[4] = target: T2, WzxE, the lipid III flippase from …; test: ELISA; biotinylated Nb10-strep II (1.62 µM/well) bound on Streptactin-coated plates; WzxE purified in DDM added at 2.78 µM for 1 h; room temperature, 25 mM Tris pH 7.5, 150 mM NaCl, 0.02% DDM, 0.1% BSA, 0.05% Tween-20; details: both partners purified

B1: nanobody Nb7 (CA12482) (VHH)
VHH: QVQLVESGGGLVQAGDSLTLSCAASGRTAYRYGMGWFRQHPGKEREFVASIWWTGTTTYYADSVKGRFTISRDDVKNMVYLQMNSLKPEDTAVYYCAAKFYGGNSKRPGDYAYWGQGTQVTVSS
notes: Raised by llama immunization with WzxE (Nanobody4Instruct), in plasmid pMESy4; In the ELISA it was probably detected by the anti-His HRP antibody (surmise; the methods leave out the step); also called chain C; source: E. coli WK6 (su-), purified (His-Trap, SEC)
- binding result [1]: binds
- binding result [2]: binds

B2: nanobody Nb10 (CA12485) (VHH)
VHH: QVQLVESGGGLVQAGGSLGLSCAASGRTFSNYVMAWFRQAPGKEREFVARISESRGTTDYADSVKGRFTISRDNAKNTIYLQMNSLNPGDTAVYSCAATLPAWTGIIGGRRPGNYPYWGQGTQVTVSS
notes: Raised by llama immunization with WzxE (Nanobody4Instruct), in plasmid pMESy4; also called chain B; source: E. coli WK6 (su-), purified (His-Trap, SEC)
- binding result [3]: binds

B3: biotinylated Nb10-Strep II tagged protein (VHH)
VHH: B2 VHH
notes: as the chain of m2 (Nb10), with the C-terminal hexa-histidine tag exchanged for a strep II tag; source: E. coli WK6 (su-), purified (Strep-tactin beads, SEC), biotinylated; not shown: strep II, C-terminal, kept
- binding result [4]: binds
